From patent publication US20250101117A1 (Genentech, published 2025)

Target: T1, oncostatin M receptor-beta (OSMRβ) (human, UniProt Q99650 28-979)
T1 sequence (looked up): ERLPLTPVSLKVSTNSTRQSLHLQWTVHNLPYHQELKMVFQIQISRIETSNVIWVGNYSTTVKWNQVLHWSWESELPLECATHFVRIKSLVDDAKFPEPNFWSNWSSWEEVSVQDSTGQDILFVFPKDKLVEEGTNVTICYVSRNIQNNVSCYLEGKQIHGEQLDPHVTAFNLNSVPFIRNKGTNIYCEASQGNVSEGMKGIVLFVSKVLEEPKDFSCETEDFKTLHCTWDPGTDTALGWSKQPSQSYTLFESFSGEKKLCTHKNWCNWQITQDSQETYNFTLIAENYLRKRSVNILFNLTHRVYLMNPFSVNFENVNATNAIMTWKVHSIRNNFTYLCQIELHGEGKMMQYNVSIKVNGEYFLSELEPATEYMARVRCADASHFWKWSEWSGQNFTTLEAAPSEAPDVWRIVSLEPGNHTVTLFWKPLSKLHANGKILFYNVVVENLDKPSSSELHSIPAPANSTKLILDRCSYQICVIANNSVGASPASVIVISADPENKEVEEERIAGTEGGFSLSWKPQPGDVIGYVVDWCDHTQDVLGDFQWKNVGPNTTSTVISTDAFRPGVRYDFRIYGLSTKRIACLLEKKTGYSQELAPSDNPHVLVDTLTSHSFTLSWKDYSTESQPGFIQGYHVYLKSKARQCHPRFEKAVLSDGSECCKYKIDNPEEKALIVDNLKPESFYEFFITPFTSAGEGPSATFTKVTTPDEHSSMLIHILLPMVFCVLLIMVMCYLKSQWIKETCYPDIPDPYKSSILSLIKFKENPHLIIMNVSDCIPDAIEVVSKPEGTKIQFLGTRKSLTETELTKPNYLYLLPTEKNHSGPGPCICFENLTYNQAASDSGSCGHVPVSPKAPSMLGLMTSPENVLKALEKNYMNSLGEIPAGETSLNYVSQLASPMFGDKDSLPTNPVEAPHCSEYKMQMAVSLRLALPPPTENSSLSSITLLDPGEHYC
Assay: cell-based or functional assay

B1: Vixarelimab (antibody, human IgG4 S228P, lambda, N297Q, V domains shown)
VH: QVQLVQSGAEVKKPGASVKVSCKASGYTFTSYEINWVRQATGQGLEWMGWMNPNSGYTGYAQKFQGRVTMTRDTSISTAYMEMSSLRSEDTAVYYCARDIVAANTDYYFYYGMDVWGQGTTVTVSS
VL: QSVLTQPPSASGTPGQRVTISCSGSNSNIGSNTVNWYHQLPGTAPKLLIYNINKRPSGVPDRFSGSKSGSSASLAISGLQSEDEADYYCSTWDDSLDGVVFGGGTKLTVLG
Mean of IC50, inhibition of OSM-induced pSTAT3; IBD-derived intestinal fibroblasts, [OSM] 1 ng/mL (standard deviation 0.05): 0.14 nM | Mean of IC50, inhibition of OSM-induced pSTAT3; IBD-derived intestinal fibroblasts, [OSM] 10 ng/mL (standard deviation 0.36): 1.15 nM | Mean of IC50, inhibition of OSM-induced pSTAT3; normal keratinocytes, [OSM] 10 ng/mL (standard deviation 0.18): 0.36 nM
